Our source for the IC50 values is patent publication US20130052176, “APTAMER FOR NGF AND USE THEREOF” (SHIONOGI & CO., LTD, published 2013).

Data set [1] deals with T1, NGF (nerve growth factor) (human, UniProt P01138 P01138:122-241). The data set can be described thus: cell_activity; neurite outgrowth, NGF 0.38 nM; TF-1 IC50 0.165 nM. The settings on record: tags: human NGF; chain copies: 2. The procedure:
(§1) The neurite outgrowth inhibitory activity of the aptamer obtained in Example 1 was evaluated by using Neuroscreen-1 cell, which is a subclone of PC-12 cells.
(§2) The cells (2500 cells per well) were cultured for one day in an RPMI-1640 medium containing 2.5% horse serum and 1.25% fetal bovine serum in a 96 well flat-bottom plate coated with collagen type IV. […] Two days later, the cytoplasm and nuclei were stained using Cellomics Neurite Outgrowth Kit (manufactured by Thermo Scientific), and neurite length per cell was measured by Cellomics ArrayScan VTI (manufactured by Thermo Scientific). With the neurite length per cell obtained by the addition of NGF alone as inhibitory activity 0%, and that of the cell obtained by NGF free culture for 2 days as inhibitory activity 100%, the inhibitory activity of the aptamer was calculated from the neurite length per cell obtained by culturing with the addition of NGF and the aptamer in mixture. When the inhibitory activity was 0% or below, ‘0%’ is indicated.

Data set [2] concerns the target T1, NGF (nerve growth factor). Description: cell_activity; neurite outgrowth, NGF 0.38 nM; TF-1 IC50 0.164 nM. Conditions: tags: human NGF; chain copies: 2. As to the method: as §1, §2
In data set [3] the target is T1, NGF (nerve growth factor). The data set can be described thus: cell_activity; neurite outgrowth, NGF 0.38 nM; TF-1 IC50 >0.3 nM. The settings on record: tags: human NGF; chain copies: 2. As to the method: as §1, §2
The target of data set [4] is T1, NGF (nerve growth factor). The data set can be described thus: cell_activity; neurite outgrowth, NGF 0.38 nM; not tested by SPR; TF-1 IC50 0.051 nM. The settings on record: tags: amine-coupled to CM5 chip in SPR; soluble in cell assays; chain copies: 2. The procedure: as §1, §2
On the technique in general: Surface plasmon resonance follows binding to a sensor surface in real time, without labels.

Data set [5] concerns the target T1, NGF (nerve growth factor). Description: cell_activity; neurite outgrowth, NGF 0.38 nM; not tested by SPR; TF-1 IC50 0.520 nM. Conditions: tags: amine-coupled to CM5 chip in SPR; soluble in cell assays; chain copies: 2. As to the method:
as §1, §2

Data set [6] addresses T1, NGF (nerve growth factor). Description: cell_activity; neurite outgrowth, NGF 1.1 nM; TF-1 IC50 <1.0 nM. Conditions: tags: human NGF; chain copies: 2. As to the method:
as §1, §2

The target of data set [7] is T1, NGF (nerve growth factor). The data set can be described thus: cell_activity; neurite outgrowth, NGF 0.38 nM; SPR binding; TF-1 IC50 0.072 nM. Conditions: tags: amine-coupled to CM5 chip in SPR; soluble in cell assays; chain copies: 2. As to the method:
as §1, §2

The target of data set [8] is T1, NGF (nerve growth factor). Description: cell_activity; neurite outgrowth, NGF 1.1 nM; SPR binding; TF-1 IC50 5.7 nM. The settings on record: tags: amine-coupled to CM5 chip in SPR; soluble in cell assays; chain copies: 2. As to the method:
as §1, §2

Data set [9] addresses T1, NGF (nerve growth factor). Description: cell_activity; neurite outgrowth, NGF 1.1 nM; SPR binding; TF-1 IC50 3.2 nM. The settings on record: tags: amine-coupled to CM5 chip in SPR; soluble in cell assays; chain copies: 2. The procedure:
as §1, §2

Data set [10] deals with T1, NGF (nerve growth factor). Description: cell_activity; neurite outgrowth, NGF 1.1 nM; SPR binding; TF-1 IC50 >30 nM. The settings on record: tags: amine-coupled to CM5 chip in SPR; soluble in cell assays; chain copies: 2. The procedure: as §1, §2
The target in data set [11] is T1, NGF (nerve growth factor). Description: cell_activity; neurite outgrowth, NGF 1.1 nM; SPR binding; TF-1 IC50 3.2 nM. The settings on record: tags: amine-coupled to CM5 chip in SPR; soluble in cell assays; chain copies: 2. This is another data set of the same source.
Data set [12] has as its target T1, NGF (nerve growth factor). The data set can be described thus: cell_activity; neurite outgrowth, NGF 1.1 nM; SPR binding; TF-1 IC50 1.4 nM. Conditions: tags: amine-coupled to CM5 chip in SPR; soluble in cell assays; chain copies: 2. As to the method:
as §1, §2

In data set [13] the target is T1, NGF (nerve growth factor). Description: cell_activity; neurite outgrowth, NGF 1.1 nM; SPR binding; blocks NGF-TrkA; TF-1 IC50 >30 nM. The settings on record: tags: amine-coupled to CM5 chip in SPR; soluble in cell assays; chain copies: 2. As to the method: as §1, §2
Data set [14] concerns the target T1, NGF (nerve growth factor). The data set can be described thus: cell_activity; neurite outgrowth, NGF 0.38 nM; SPR binding; TF-1 IC50 2.8 nM. The settings on record: tags: amine-coupled to CM5 chip in SPR; soluble in cell assays; chain copies: 2. As to the method:
as §1, §2

T1 sequence (P01138 122-241, one chain of several): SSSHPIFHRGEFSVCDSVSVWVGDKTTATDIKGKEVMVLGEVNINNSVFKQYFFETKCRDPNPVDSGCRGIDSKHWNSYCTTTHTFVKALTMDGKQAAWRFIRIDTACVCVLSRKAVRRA

B1: aptamer ID 26(30) (mixed)
RNA: GGGAGACUCGCCAGAGUUGAAAGAAACCCAAAUAAGUGUGCGCAC
modifications: as 26(19) (5' and 3' idT; 2'-F pyrimidines; 2'-OMe purines except ribo g3,g19,a20,a26) but c45 is dC
As usually defined, the IC50 is the concentration that gives 50% inhibition. A lower IC50 goes with inhibition by little substance. The molecule B1 registered an IC50 in data set [1] of 0.289 nM.

B2: aptamer ID 26(35) (ssRNA)
RNA: GGGAGACUCGCCAGAGUUGAAAGAAACCCAAAUAAGUGUGCGCAC
modifications: as 26(19) (5' and 3' idT; 2'-F pyrimidines; 2'-OMe purines except ribo g3,g19,a20,a26) but c45 is 2'-OMe
In data set [2], B2 had an IC50 of 0.166 nM.

B3: aptamer ID 26(40) (ssRNA)
RNA: GGGAGACUCGCCAGAGUUGAAAGAAACCCAAAUAAGUGUGCGCAC
modifications: as 26(19) (5' and 3' idT; 2'-F pyrimidines; 2'-OMe purines except ribo g3,g19,a20,a26) but c7 is 2'-OMe; PS between a26 and c27
Turning to B3, in data set [3], the IC50 amounted to 0.247 nM.

B4: aptamer ID 26(64) (ssRNA)
RNA: GGGAGACUCGCCAGAGUUGAAAGAAACCCAAAUAAGUGUGCGCAC
modifications: 2'-F pyrimidines except 2'-OMe at 7,8,9,11,12,17,18,33,37,39,45; 2'-OMe purines except 2'-OH at 3,19,20,26; 5' PEG80TS4 (ssH linker); 3' idT
As to B4, the IC50 in data set [4] is 0.102 nM.

B5: aptamer ID 26(66) (ssRNA)
RNA: GGGAGACUCGCCAGAGUUGAAAGAAACCCAAAUAAGUGUGCGCAC
modifications: 2'-F pyrimidines; 2'-OMe purines except 2'-OH at 3,19,20,26; 5' PEG40GS2 (ssH linker); 3' idT
As for B5, in [5], inhibition was half-maximal at 0.252 nM (IC50).

B6: aptamer ID 26 (ssRNA)
RNA: GGGAGACUCGCCAGAGUUGAAAGAAACCCAAAUAAGUGUGCGCAC
modifications: 2'-F all pyrimidines
As for B6, in [6], the IC50 is below 1 nM.

B7: aptamer ID 26(52) (ssRNA)
RNA: GGGAGACUCGCCAGAGUUGAAAGAAACCCAAAUAAGUGUGCGCAC
modifications: 2'-F pyrimidines except 2'-OMe at 7,8,9,11,12,17,18,33,37,39,45; 2'-OMe purines except 2'-OH at 3,19,20,26; 5' idT and 3' idT
For the molecule B7, the IC50 in [7] was determined as 0.101 nM.

B8: aptamer ID 22 (ssRNA)
RNA: GGGAGACUCGCCAGAGUUGAAAGAAACCCAAAUAAAGAUGUGCGCAUCA
modifications: 2'-F at all pyrimidines
In data set [8], B8 returned an IC50 of 1.3 nM.

B9: aptamer ID 27 (ssRNA)
RNA: GGGAGACUCGCAGAGUUGAAAGAAACCCAAAUAAAGUGUGCGCACA
modifications: 2'-F at all pyrimidines
In the case of B9, in data set [9], the half-inhibitory concentration (IC50) was below 1 nM.

B10: aptamer ID 43 (ssRNA)
RNA: GGGAGAACUUCGACCAGAAGUCGAUAACGAACAAAACUCCCAAAUAUGUGCGCAUACA
modifications: 2'-F at all pyrimidines
B10 gave an IC50 in data set [10] below 3 nM.

B11: aptamer ID 19 (ssRNA)
RNA: GGGAGAACUUCGCCAGAAGUUUGAAAGAAACCCAAAUAAAGAUGUGCGCAUC
modifications: 2'-F at all pyrimidines
B11: the IC50 in data set [11] worked out at 1.3 nM.

B12: aptamer ID 28 (ssRNA)
RNA: GGGAGACUCGCAGAGUUGAAAGAAACCCAAAUAAGUGUGCGCAC
modifications: 2'-F at all pyrimidines
Consider B12, for which, in [12], the IC50 was below 1 nM.

B13: aptamer ID 32 (ssRNA)
RNA: GGGAGAACUUCGACCAGAAGUCGAUAACGAACAAAACUCCCAAAGGAAUAUAUGUGCGCAUACA
modifications: 2'-F at all pyrimidines
As to B13, the IC50 in [13] stood at 1 nM.

B14: aptamer ID 30 (ssRNA)
RNA: GGGAGACUCGCAGAGUUGAAAGAAACCCAAAUAGUGUGCGCAC
modifications: 2'-F at all pyrimidines
With B14, in [14], the IC50 is below 0.3 nM.
